# Laboratory results: the supplement of paper PMC10065799, “High-throughput profiling of sequence recognition by tyrosine kinases and SH2 domains using bacterial peptide display” (eLife, 2023)
# Key:
# c-Src SH2 = test: SH2 binding enrichment of the phosphorylated peptide, bacterial display (enrichment ratio); higher = better substrate or ligand; peptides without Tyr show the background
# SHP2-C SH2 = test: as above
# Grb2 SH2 = Grb2 SH2 (UniProt P62993); test: as above
# FGFR3 = FGFR3 (UniProt P22607); test: phosphorylation enrichment, bacterial display (enrichment ratio); higher = better substrate or ligand; peptides without Tyr show the background
# Hck = Hck (UniProt P08631); test: as above
# EPHB2 = EPHB2 (UniProt P29323); test: as above
# c-Abl (mouse) = test: as above
# EPHB1 = EPHB1 (UniProt P54762); test: as above
# Jak2 = Jak2 (UniProt O60674); test: as above
# MERTK = MERTK (UniProt Q12866); test: as above
# c-Src = test: as above
# Fer (mouse) = test: as above
# Fyn = Fyn (UniProt P06241); test: as above
# Fes = Fes (UniProt P07332); test: as above
# FGFR1 = FGFR1 (UniProt P11362); test: as above
# AncSZ = test: as above
# 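For SH2 binding enrichment of the phosphorylated peptide, bacterial display in this document: peptide library displayed on the E. coli surface as eCPX fusions, selected cells deep-sequenced, score is each peptide's frequency after selection divided by its frequency in the input.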
# 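For phosphorylation enrichment, bacterial display in this document: 11-residue human phosphosite peptides and single-mutation variants displayed on the E. coli surface, counted by deep sequencing, each peptide's frequency after selection divided by its frequency in the unselected input library; frequency after pTyr selection over input frequency; kinase dosed for 20-30% of maximal phosphorylation in three min.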
# Fes, sequence (P07332 whole entry, looked up): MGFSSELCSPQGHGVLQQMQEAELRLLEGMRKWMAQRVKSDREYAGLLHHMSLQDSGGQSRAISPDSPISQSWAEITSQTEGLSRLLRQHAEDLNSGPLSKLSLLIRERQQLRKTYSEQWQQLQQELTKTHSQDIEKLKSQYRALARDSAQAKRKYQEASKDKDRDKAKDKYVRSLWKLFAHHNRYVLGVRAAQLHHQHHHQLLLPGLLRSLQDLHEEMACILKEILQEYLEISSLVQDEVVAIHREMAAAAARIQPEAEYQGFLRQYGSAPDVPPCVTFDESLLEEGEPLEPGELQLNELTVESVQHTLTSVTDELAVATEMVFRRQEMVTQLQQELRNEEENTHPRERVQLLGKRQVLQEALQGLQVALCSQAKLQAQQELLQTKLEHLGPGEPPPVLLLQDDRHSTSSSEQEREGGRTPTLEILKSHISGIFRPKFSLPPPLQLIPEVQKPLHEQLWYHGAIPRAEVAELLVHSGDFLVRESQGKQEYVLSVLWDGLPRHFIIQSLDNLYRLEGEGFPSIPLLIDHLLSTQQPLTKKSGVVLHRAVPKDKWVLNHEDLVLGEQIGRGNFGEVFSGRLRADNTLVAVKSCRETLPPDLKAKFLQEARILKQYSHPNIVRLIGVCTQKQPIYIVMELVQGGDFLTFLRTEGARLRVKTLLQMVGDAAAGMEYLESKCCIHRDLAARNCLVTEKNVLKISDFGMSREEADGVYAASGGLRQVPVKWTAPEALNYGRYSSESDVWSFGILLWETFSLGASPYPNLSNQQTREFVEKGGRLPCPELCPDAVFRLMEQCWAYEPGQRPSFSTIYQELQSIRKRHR
# Jak2, sequence (O60674 whole entry, looked up): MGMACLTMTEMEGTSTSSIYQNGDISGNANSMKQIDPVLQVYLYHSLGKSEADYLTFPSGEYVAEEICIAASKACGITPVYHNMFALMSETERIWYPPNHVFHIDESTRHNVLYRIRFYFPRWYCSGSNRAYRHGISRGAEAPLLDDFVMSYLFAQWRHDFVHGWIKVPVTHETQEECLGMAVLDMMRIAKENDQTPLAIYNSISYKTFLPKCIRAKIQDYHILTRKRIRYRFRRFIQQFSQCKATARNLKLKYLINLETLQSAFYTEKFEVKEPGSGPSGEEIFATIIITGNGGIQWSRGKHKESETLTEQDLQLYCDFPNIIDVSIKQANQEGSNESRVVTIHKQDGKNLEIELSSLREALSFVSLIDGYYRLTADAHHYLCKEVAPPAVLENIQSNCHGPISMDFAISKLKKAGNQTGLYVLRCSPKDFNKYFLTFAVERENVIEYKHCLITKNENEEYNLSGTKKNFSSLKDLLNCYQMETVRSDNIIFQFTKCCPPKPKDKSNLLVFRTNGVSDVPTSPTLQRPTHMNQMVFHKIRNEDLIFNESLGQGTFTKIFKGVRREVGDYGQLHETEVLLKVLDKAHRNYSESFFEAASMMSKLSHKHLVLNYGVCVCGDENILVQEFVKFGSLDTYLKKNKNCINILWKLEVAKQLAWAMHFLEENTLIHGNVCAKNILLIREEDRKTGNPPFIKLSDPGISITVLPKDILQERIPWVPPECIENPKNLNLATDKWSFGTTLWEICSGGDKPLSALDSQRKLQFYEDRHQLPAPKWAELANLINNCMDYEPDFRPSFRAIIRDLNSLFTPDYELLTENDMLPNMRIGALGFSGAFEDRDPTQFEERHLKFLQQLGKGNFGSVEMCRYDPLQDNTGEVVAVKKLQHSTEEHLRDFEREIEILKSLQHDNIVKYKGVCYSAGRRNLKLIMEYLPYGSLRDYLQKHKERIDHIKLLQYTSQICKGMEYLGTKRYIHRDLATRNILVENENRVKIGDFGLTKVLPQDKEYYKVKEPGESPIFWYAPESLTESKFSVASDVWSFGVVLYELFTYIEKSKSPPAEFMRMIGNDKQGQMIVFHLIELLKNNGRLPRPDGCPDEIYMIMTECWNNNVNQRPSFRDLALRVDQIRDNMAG
# Fyn, sequence (P06241 whole entry, looked up): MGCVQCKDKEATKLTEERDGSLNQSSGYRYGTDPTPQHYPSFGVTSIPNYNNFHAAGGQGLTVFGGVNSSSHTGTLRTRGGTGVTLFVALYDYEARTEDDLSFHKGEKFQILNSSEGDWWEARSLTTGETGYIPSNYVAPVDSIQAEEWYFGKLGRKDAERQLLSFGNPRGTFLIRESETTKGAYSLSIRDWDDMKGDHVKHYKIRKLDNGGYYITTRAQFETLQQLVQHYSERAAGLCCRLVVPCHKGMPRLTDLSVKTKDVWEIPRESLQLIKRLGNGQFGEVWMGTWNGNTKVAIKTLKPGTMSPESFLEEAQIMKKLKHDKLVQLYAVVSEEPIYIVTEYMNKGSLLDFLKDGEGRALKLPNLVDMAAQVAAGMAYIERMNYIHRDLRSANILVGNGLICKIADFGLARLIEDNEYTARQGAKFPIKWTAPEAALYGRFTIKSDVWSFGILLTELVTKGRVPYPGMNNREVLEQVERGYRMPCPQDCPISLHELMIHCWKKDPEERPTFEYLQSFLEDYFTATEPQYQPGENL
# EPHB2, sequence (P29323 whole entry, looked up): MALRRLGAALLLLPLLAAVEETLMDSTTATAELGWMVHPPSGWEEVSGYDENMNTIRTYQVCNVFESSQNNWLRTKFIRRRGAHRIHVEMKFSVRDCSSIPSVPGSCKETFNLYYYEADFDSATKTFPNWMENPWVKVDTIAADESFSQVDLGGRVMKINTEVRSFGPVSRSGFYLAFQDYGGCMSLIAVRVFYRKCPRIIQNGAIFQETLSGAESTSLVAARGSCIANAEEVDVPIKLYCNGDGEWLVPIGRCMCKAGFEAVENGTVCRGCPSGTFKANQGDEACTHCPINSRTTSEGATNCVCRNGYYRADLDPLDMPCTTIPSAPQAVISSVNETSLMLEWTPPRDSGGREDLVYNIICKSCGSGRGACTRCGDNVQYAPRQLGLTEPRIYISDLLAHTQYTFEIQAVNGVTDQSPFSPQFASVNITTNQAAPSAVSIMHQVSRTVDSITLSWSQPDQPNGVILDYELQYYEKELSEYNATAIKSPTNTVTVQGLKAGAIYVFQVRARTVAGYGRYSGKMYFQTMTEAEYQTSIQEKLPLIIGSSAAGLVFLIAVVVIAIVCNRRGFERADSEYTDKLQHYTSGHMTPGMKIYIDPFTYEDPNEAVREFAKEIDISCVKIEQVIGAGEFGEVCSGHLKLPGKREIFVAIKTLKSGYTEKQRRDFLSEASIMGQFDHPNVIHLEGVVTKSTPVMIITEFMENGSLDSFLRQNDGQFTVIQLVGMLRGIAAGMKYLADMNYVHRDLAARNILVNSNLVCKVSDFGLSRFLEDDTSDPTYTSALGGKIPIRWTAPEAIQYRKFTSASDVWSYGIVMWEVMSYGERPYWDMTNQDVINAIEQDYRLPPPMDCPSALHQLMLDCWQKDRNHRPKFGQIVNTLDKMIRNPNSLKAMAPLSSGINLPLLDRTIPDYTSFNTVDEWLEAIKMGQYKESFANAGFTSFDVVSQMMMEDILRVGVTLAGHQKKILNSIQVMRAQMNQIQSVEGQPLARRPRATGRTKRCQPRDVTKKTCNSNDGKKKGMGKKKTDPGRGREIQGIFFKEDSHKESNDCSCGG
# FGFR1, sequence (P11362 whole entry, looked up): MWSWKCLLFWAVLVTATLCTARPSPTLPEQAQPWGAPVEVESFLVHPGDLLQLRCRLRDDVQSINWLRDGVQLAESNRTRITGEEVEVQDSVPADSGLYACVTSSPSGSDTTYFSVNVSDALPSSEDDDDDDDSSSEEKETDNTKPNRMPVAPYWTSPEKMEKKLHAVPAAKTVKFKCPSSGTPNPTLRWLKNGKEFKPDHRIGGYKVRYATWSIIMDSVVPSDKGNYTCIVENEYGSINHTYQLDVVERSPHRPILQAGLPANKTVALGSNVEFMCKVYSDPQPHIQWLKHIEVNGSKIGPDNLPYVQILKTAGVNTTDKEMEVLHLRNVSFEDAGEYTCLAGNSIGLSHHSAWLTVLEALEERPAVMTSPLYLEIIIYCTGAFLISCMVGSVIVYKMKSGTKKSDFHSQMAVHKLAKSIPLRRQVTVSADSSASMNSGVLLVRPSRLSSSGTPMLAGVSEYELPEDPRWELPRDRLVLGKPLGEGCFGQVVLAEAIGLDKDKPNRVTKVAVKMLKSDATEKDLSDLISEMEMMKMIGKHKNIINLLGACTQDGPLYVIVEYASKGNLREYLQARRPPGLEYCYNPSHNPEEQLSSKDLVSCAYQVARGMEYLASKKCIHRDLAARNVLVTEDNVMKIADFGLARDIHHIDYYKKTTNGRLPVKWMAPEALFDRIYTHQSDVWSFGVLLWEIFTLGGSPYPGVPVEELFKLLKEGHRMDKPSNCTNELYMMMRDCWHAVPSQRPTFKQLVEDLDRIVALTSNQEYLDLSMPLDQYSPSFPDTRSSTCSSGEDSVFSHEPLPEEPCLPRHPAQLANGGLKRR
# Hck, sequence (P08631 whole entry, looked up): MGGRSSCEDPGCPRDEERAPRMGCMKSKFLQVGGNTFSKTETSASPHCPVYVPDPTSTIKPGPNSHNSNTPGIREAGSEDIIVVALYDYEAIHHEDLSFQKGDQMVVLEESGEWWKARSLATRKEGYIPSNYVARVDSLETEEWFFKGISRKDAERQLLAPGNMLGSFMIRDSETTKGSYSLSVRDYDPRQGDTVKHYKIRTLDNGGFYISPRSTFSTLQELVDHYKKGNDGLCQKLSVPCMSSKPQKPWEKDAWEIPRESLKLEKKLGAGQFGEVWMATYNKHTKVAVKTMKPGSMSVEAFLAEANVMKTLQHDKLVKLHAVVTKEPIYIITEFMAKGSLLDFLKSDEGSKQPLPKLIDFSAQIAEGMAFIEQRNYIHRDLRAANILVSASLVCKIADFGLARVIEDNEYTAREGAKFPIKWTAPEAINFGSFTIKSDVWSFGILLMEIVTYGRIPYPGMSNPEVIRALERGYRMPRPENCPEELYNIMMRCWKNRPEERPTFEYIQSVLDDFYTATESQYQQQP
Sequence,SH2 binding enrichment (c-Src SH2),SH2 binding enrichment (SHP2-C SH2),SH2 binding enrichment (Grb2 SH2),phosphorylation enrichment (FGFR3),phosphorylation enrichment (Hck),phosphorylation enrichment (EPHB2),phosphorylation enrichment (c-Abl (mouse)),phosphorylation enrichment (EPHB1),phosphorylation enrichment (Jak2),phosphorylation enrichment (MERTK),phosphorylation enrichment (c-Src),phosphorylation enrichment (Fer (mouse)),phosphorylation enrichment (Fyn),phosphorylation enrichment (Fes),phosphorylation enrichment (FGFR1),phosphorylation enrichment (AncSZ)
ESDYPYSSSYE [SRPK2_Y427_T426P],0.829,0.395,0.832,0.789,0.581,0.649,0.481,0.589,0.71,0.513,0.784,0.499,0.593,1.18,0.668,1.19
FLELNYKEDEF [MME_Y502_YF],0.585,0.773,0.856,0.633,0.552,0.569,0.589,0.612,0.848,0.344,0.349,0.524,0.461,1.05,0.565,1.34
RLIEGYTGPFK [ZNF862_Y181],0.472,0.862,0.808,1.29,1.3,0.927,1.12,1.07,1.79,1.23,1.29,1.21,1.1,1.75,1.13,1.59
PVQAAYQKVVP [HBB_Y131_A136P],1,0.751,0.881,0.775,0.803,0.631,0.561,0.787,0.88,0.619,0.626,0.827,0.878,0.64,0.727,0.763
EKLQKYYRQNP [EHHADH_Y682],0.548,0.746,0.927,0.497,0.408,0.543,0.581,0.568,0.55,0.371,0.428,0.367,0.391,0.667,0.509,0.523
QWRTKYETDAI [MYH7_Y1375],0.542,0.521,0.849,0.624,0.355,0.432,1.04,0.663,1.74,0.545,0.528,0.543,0.643,1.36,0.4,0.971
DNEAIYDICRR [TUBA4A_Y210],0.516,0.546,0.613,0.843,7.21,4.97,16.1,4.07,1.03,5.98,5.7,10.7,8.6,1.45,0.671,2.79
LVQAEYWRDPI [PPT1_Y185_H187R],0.914,1.14,0.818,1.22,0.423,0.931,0.816,0.891,1.46,0.614,0.691,0.693,0.961,1.72,1.71,1.55
LLRLAYLADVF [ZBED5_Y476_I480V],1.82,2.41,1.97,0.725,0.628,0.583,0.704,0.74,0.924,0.537,0.47,0.633,0.484,1.19,0.577,1.18
DVYVSYDCGKS [SORL1_Y139_Y141C],0.476,0.791,0.82,1.81,3.12,1.93,0.862,1.47,0.895,1.04,3.94,0.985,6.11,1.1,1.79,1.6
AGQEDYDRLRS [RHOA_Y66_P71S],0.554,0.657,0.596,0.639,0.638,0.513,0.741,0.582,1.05,0.466,0.609,0.795,0.555,1.38,0.475,0.96
NPSYNYEIVNR [DYNC1H1_Y3379],0.82,0.602,0.675,0.572,0.737,6.48,0.562,13,0.656,0.725,0.519,1.26,0.479,0.776,0.552,0.898
DDPRRYQKFGF [OAS1_Y362_YF],0.467,0.909,1.15,0.528,0.398,0.425,0.418,0.376,0.674,0.475,0.321,0.414,0.502,0.667,0.438,0.593
ELANLYHHVWM [BICD2_Y538_C542W],0.816,0.835,0.869,4.76,5.11,1.93,0.918,6.35,1.3,6.21,2.51,12.9,2.75,1.25,6.38,1.32
TNQVICLNPPI [DYNC1H1_Y970_Y970C],0.477,0.619,0.788,0.62,0.495,0.54,1.17,0.589,0.892,0.405,0.446,0.458,0.459,0.921,0.53,0.842
SVTRTYSPALN [TP53_Y126_C124R],0.424,0.579,0.961,0.418,0.345,0.378,0.427,0.313,0.429,0.313,0.399,0.485,0.384,0.522,0.394,0.445
FLQEIHNSNNQ [FGG_Y140_Y140H_YF],0.416,0.867,0.71,0.716,0.538,0.436,0.808,0.561,0.63,0.443,0.391,0.607,0.511,1.01,0.606,0.823
QKPLGYYRVNL [GALE_Y104_D103G],0.961,1.3,1.27,0.826,0.497,0.482,0.455,0.445,2.37,0.516,0.386,0.51,0.528,0.641,0.636,0.667

# Second part, led by results:
SH2 binding enrichment (c-Src SH2),SH2 binding enrichment (SHP2-C SH2),SH2 binding enrichment (Grb2 SH2),Sequence,phosphorylation enrichment (FGFR3),phosphorylation enrichment (Hck),phosphorylation enrichment (EPHB2),phosphorylation enrichment (c-Abl (mouse)),phosphorylation enrichment (EPHB1),phosphorylation enrichment (Jak2),phosphorylation enrichment (MERTK),phosphorylation enrichment (c-Src),phosphorylation enrichment (Fer (mouse)),phosphorylation enrichment (Fyn),phosphorylation enrichment (Fes),phosphorylation enrichment (FGFR1),phosphorylation enrichment (AncSZ)
0.443,0.482,0.731,FTGSTYRVGDT [FN1_Y106_N104S_YF],0.431,0.404,0.384,0.448,0.41,0.783,0.551,0.484,0.492,0.37,0.703,0.425,0.631
0.482,0.742,1.02,SSDPDYLAAVD [GLB1_Y154],0.885,0.631,0.74,0.814,0.693,1.12,0.487,0.55,0.604,0.656,1.27,0.56,1.34
0.741,1.06,0.991,KFLENYFDLEK [MMP3_Y41_K45E_YF],2.14,0.487,0.878,0.844,2.5,1.39,0.46,0.502,0.439,0.467,1.23,3.77,1.39
0.6,0.883,0.814,FFPANYVAPMT [GRAP2_Y324_L319F],0.646,0.469,2.17,1.36,4.84,0.865,0.768,0.449,0.41,0.471,0.826,0.65,0.924
0.655,0.645,0.89,GKTFTYHSVFF [ZNF80_Y200_R201H],0.904,0.592,0.547,1,0.602,1.3,0.46,0.999,0.655,0.596,1.25,0.618,1.31
0.855,1.27,1.42,RETPLYKACER [ASB2_Y162],0.759,0.577,0.573,1.02,0.441,0.632,0.527,0.568,0.504,0.457,1.13,0.457,0.777
0.821,1.12,1.07,RLRIDYERVSQ [DSP_Y1542],0.878,0.531,0.613,0.742,1.25,1.01,0.539,0.412,0.702,0.43,1.46,0.543,1.08
0.886,1.19,1.03,DRKRQCELLKL [KIF4B_Y684_Y684C],0.689,0.428,0.404,0.679,0.401,0.791,0.356,0.493,0.432,0.355,0.839,0.502,0.646
0.493,0.377,0.549,KRRGPYETSPS [PLPP7_Y172],0.397,0.399,0.403,0.526,0.345,0.539,0.405,0.614,0.446,0.491,0.495,0.414,0.599
0.553,0.916,0.944,FFTEEYVRDHP [DOCK2_Y1555],0.766,0.485,0.461,0.657,0.486,1.19,0.381,0.457,0.452,0.44,0.915,0.481,0.989
0.571,0.585,0.969,PIMSFYAALID [RYR1_Y2426_A2421P],1.33,0.647,1.24,0.905,1.45,1.54,0.732,0.487,0.734,0.49,1.46,0.706,1.58
0.765,0.746,0.894,RFLRGYEQDAF [HLA-A_Y137_R138E_YF],0.586,0.629,0.555,0.778,0.498,1.36,0.536,0.533,0.51,0.636,1.21,0.466,0.935
0.379,0.417,0.554,PFNAEYGGGGG [AKR1B10_Y316],0.802,1.66,0.693,0.43,1.35,0.627,0.879,0.285,0.871,1.14,1.49,1.06,1.19
0.656,0.824,0.952,DILASYLDKVR [KRT12_Y139_R135I],0.594,0.403,0.437,0.37,0.364,0.505,0.364,0.375,0.284,0.457,0.96,0.407,0.54
1.81,0.933,0.974,KGRGEYSAIKA [PRKCD_Y374_F375S],0.443,0.811,0.366,0.761,0.434,0.636,0.603,0.625,0.45,0.412,0.864,0.393,0.553
